# Assay results published in US20030032045.
# Target: in vitro translated, 35S-labeled PARP (full length human poly(ADP-ribose) polymerase), P09874
# Sequence (P09874 whole entry, looked up): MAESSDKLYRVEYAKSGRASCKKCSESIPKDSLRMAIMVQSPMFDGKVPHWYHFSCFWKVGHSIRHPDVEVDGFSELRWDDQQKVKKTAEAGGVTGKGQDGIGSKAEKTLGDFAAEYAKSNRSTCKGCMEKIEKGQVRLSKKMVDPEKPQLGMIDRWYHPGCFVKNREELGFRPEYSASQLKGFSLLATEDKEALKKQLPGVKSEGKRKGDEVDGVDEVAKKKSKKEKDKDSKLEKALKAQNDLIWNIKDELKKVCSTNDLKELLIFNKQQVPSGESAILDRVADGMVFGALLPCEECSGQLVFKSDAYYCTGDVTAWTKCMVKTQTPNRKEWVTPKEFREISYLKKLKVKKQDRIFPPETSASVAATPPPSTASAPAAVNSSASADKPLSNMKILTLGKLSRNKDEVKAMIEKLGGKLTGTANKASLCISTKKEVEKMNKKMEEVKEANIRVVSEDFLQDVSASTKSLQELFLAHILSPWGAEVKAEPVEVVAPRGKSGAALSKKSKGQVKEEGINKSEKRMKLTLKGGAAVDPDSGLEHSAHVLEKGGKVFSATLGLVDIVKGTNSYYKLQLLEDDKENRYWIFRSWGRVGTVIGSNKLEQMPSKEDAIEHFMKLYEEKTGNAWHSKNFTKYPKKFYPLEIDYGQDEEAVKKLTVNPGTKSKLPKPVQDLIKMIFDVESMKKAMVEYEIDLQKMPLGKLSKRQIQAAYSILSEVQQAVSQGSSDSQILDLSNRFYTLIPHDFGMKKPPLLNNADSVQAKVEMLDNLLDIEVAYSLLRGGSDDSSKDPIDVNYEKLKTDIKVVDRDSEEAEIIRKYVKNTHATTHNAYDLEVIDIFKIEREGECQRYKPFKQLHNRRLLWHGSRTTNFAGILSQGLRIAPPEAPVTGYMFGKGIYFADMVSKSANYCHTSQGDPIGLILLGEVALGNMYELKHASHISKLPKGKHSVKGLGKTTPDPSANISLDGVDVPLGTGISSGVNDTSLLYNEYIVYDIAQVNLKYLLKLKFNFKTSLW
protein,measurement,value
"CPP32 (endogenous, in HeLa cell S-100) (protein) MENTENSVDSKSIKNLEPKIIHGSESMDSGISLDNSYKMDYPEMGLCIIINNKNFHKSTGMTSRSGTDVDAANLRETFRNLKYEVRNKNDLTREEIVELMRDVSKEDHSKRSSFVCVLLSHGEEGIIFGTNGPVDLKKITNFFRGDRCRSLTGKPKLFIIQACRGTELDCGIETDSGVDDDMACHKIPVEADFLYAYSTAPGYYSWRNSKDGSWFIQSLCAMLKQYADKLEFMHILTRVNRKVATEFESFSFDATFHAKKQIPCIVSMLTKELYFYH","cleavage of 35S-labeled PARP (SDS-PAGE, autoradiography)",The activated extracts readily cleaved PARP into 85 kDa and 24 kDa fragments
